# Laboratory results published in patent US11833215B2, “CKIT antibody drug conjugates” (Novartis AG, priority 2014, dated 2023).
# T1: mouse cKIT (Mus musculus, UniProt P05532)
# T1 construct: cKIT receptor extracellular domains (ECD) were diluted in a 2-fold series
# T1 sequence (P05532 25-527 limits assumed): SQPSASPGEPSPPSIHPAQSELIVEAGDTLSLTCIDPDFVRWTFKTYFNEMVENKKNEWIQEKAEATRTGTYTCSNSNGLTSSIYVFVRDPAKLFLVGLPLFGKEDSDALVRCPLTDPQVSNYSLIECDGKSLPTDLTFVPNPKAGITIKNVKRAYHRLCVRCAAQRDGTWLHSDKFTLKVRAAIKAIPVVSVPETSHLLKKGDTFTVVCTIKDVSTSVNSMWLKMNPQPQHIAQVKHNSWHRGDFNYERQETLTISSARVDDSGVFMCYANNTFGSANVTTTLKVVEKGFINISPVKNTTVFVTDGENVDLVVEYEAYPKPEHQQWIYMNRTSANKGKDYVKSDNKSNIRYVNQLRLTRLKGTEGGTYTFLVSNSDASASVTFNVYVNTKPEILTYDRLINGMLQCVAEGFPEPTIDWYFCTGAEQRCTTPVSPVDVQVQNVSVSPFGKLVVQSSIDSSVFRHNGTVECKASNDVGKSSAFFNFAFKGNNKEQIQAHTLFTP
# Legend:
# GIST cell lines = settings: SR-1 as second therapeutic on Imatinib treated cells; cited from earlier work
# Uke-1 cells = experiment: ADCC activity in vitro (Calcein release, NK3.3 effector cells); type: cell-based; settings: unconjugated IgG1, effector to target ratio 20 to 1
# Method: The ability of the unconjugated anti-cKIT antibodies (NEG085, 20376) to mediate antibody dependent cellular cytotoxicity was determined versus Uke-1 cells (target cells; generously provided by Professor Walter Fiedler, University Hospital Eppendorf, Hamburg, Germany) in co-incubation with NK3.3 cells (killer cells or effector cells; kindly provided by Jacky Kornbluth from Saint Louis University). […] In order to calculate the antibody specific lysis of the target cells, a parallel incubation of target cells only without antibody or effector cells served as a baseline and negative control, whereas the positive control or maximal lysis or hundred percent specific lysis was determined by lysis of target cells only with a 1% Triton-X 100 solution. […] Following a co-incubation of target and effector cells, the microtiterplate was centrifuged and an aliquot of the supernatant fluid was transferred to another microtiterplate (96 well, flat-bottomed, black with clear bottom; (Corning Costar, catalog #3904, Tewksbury, MA) and the concentration of free Calcein in solution was determined with a fluorescence counter (Victor 3 ® multilabel counter, Perkin Elmer, Waltham, MA).
# human cKIT = biological target: T2, human cKIT (Homo sapiens, UniProt P10721); experiment: SPR (Biacore) affinity measurement; type: binding; settings: 25° C., 1:1 model
# T2 construct: Human cKIT tr. variant 2 , residues 26-520-TAG; made in house; host or cells: HEK293 derived cell line 293FS, transient transfection
# T2 sequence (P10721 with tags, fused parts or gaps isoform P10721-2): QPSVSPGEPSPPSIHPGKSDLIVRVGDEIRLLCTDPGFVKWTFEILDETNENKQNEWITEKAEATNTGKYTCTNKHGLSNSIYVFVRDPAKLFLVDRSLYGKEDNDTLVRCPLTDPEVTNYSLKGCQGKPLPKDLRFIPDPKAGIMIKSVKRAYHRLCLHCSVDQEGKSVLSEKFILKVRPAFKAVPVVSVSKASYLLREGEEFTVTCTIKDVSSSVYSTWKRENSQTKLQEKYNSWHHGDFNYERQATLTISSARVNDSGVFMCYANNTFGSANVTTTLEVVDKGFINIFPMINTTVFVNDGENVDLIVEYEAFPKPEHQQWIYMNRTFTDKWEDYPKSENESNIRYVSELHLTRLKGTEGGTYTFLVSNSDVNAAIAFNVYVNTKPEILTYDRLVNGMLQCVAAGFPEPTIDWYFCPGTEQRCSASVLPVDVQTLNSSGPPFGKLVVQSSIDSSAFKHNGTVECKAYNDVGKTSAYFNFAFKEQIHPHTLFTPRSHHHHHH
# Method: (§1) Affinity of the antibodies to cKIT species orthologues and also to cKIT was determined using SPR technology using a Biacore® 2000 instrument (GE Healthcare, Pittsburgh, PA) and with CM5 sensor chips.
# (§2) Briefly, HBS-P (0.01 M HEPES, pH 7.4, 0.15 M NaCl, 0.005% Surfactant P20) supplemented with 2% Odyssey® blocking buffer (Li-Cor Biosciences, Lincoln, NE) was used as the running buffer for all the experiments. The immobilization level and analyte interactions were measured by response unit (RU). Pilot experiments were performed to test and confirm the feasibility of the immobilization of the anti-human Fc antibody (Catalog number BR100839, GE Healthcare, Pittsburgh, PA) and the capture of the test antibodies.
# (§3) For kinetic measurements, the experiments were performed in which the antibodies were captured to the sensor chip surface via the immobilized anti-human Fc antibody and the ability of the cKIT proteins to bind in free solution was determined. Briefly, 25 μg/ml of anti-human Fc antibody at pH 5 was immobilized on a CM5 sensor chip through amine coupling at flow rate of 5 μl/minute on all two flow cells to reach 10,500 RUs. 0.1-1 μg/ml of test antibodies were then injected at 10 μl/min for 1 minute. Captured levels of the antibodies were generally kept below 200 RUs. Subsequently, 3.125 −50 nM of cKIT receptor extracellular domains (ECD) were diluted in a 2-fold series and injected at a flow rate of 40 μl/min for 3 min over both reference and test flow cells. Table of tested ECDs is listed below (Table 6). Dissociation of the binding was followed for 10 min. After each injection cycle, the chip surface was regenerated with 3 M MgCl2 at 10 μl/min for 30 seconds.
# mouse cKIT = biological target: T1, mouse cKIT; experiment: SPR (Biacore) affinity measurement; type: binding; settings: 25° C., 1:1 model
# Method: as §1, §2, §3
# rat cKIT = experiment: SPR (Biacore) affinity measurement; type: binding; settings: 25° C., 1:1 model
# rat cKIT, sequence (as listed by the source): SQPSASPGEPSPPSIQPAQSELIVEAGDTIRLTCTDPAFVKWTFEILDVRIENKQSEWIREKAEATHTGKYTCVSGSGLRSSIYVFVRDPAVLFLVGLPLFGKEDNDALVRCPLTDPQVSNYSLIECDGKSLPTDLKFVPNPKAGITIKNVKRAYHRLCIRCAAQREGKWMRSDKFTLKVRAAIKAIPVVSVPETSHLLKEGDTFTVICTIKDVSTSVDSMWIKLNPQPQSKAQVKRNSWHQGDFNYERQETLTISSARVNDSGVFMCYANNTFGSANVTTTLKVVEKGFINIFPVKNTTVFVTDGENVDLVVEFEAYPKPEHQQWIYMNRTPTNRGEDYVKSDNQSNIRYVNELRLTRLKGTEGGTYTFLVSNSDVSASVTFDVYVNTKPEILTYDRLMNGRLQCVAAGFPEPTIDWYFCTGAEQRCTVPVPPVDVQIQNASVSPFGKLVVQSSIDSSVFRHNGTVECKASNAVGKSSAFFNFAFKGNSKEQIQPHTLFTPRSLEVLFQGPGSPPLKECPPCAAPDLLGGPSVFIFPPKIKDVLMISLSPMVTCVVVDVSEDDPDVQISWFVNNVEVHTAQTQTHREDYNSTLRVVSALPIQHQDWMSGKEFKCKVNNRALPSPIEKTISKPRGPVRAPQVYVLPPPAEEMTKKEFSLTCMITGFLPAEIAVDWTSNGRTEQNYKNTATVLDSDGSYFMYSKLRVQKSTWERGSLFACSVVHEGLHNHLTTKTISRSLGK
# Method: as §1, §2, §3
# SCF binding to cKIT = SCF binding to cKIT (Homo sapiens, UniProt P10721); experiment: competition assays using ELISA and FACS
# SCF binding to cKIT, sequence (P10721 26-976): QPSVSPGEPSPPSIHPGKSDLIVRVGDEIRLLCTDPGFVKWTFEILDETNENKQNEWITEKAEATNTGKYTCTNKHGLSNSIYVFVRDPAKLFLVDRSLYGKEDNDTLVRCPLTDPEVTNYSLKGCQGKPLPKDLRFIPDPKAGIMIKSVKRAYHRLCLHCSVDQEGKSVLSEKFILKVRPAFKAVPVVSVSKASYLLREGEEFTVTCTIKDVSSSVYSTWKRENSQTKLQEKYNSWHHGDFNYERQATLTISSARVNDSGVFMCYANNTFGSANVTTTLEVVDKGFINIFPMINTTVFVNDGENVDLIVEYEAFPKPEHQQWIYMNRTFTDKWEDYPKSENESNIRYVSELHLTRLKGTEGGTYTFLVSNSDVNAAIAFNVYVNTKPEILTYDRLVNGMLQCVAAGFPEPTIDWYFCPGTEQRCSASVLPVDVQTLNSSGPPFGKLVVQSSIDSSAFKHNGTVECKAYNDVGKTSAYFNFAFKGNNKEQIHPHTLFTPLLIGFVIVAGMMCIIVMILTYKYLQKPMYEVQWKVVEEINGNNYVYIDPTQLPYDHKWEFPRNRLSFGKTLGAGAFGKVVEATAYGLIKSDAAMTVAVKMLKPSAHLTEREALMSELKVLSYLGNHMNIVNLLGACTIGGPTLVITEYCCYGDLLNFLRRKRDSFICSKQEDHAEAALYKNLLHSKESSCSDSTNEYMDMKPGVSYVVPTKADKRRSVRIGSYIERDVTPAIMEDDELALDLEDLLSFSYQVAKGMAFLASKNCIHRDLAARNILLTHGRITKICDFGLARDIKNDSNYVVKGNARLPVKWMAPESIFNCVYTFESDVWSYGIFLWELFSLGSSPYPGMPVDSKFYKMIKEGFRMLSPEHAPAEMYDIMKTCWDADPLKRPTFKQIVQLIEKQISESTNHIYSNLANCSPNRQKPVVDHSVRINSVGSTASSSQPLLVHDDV
Molecule,proliferation of GIST cells (GIST cell lines),ADCC killing of target cells (Uke-1 cells),Affinity human cKIT (nM) (human cKIT),Affinity mouse cKIT (nM) (mouse cKIT),Affinity to rat cKIT (nM) (rat cKIT),blocking of SCF binding to cKIT (SCF binding to cKIT)
Cc1ccc(NC(=O)c2ccc(CN3CCN(C)CC3)cc2)cc1Nc1nccc(-c2cccnc2)n1 [imatinib],significantly reduce proliferation,–,–,–,–,–
MabCampath® [reference compound],–,mediated ADCC killing,–,–,–,–
"NEG027: anti-cKIT antibody of Table 3, VH SEQ ID NO 64, VL SEQ ID NO 73 (antibody, listed as Homo sapiens, V domains shown) VH: EVQLVESGGGLVQPGGSLRLSCAASGFTFSDYYMAWVRQAPGKGLEWVASINQNTGSTYYLDSVRGRFTISRDNAKNSLYLQMNSLRAEDTAVYYCARGDYYGTTYWYFDVWGQGTTVTVSS VL: EIVMTQSPATLSLSPGERATLSCRASQDISNYLNWYQQKPGQAPRLLIYYTSRLQSGIPARFSGSGSGTDYTLTISSLEPEDFAVYYCQQGKKLWSFGGGTKVEIK",–,–,nanomolar level,Not reactive,Not reactive,–
"NEG026: anti-cKIT antibody of Table 3, VH SEQ ID NO 46, VL SEQ ID NO 55 (antibody, listed as Homo sapiens, V domains shown) VH: EVQLVESGGGLVQPGGSLRLSCAASGFTFSDYYMAWVRQAPGKGLEWVANINQNTGSTYYVDSVQGRFTISRDNAKNSLYLQMNSLRAEDTAVYYCARGDYYGTTYWYFDVWGQGTTVTVSS VL: EIVMTQSPATLSLSPGERATLSCRASQDISNYLNWYQQKPGQAPRLLIYYTSRLQSGIPARFSGSGSGTDYTLTISSLEPEDFAVYYCQQGKKLWSFGGGTKVEIK",–,–,–,Not reactive,Not reactive,–
"NEG087: anti-cKIT antibody of Table 3, VH SEQ ID NO 118, VL SEQ ID NO 127 (antibody, listed as Homo sapiens, V domains shown) VH: EVQLVESGGGLVQPGGSLRLSCAASGFTFSDYYMAWVRQAPGKGLEWVASINQNTGSTYYLDSVRGRFTISRDNAKNSLYLQMNSLRAEDTAVYYCARGDYYGTTYWYFDVWGQGTTVTVSS VL: DIQMTQSPSSLSASVGDRVTITCRASQSISSYLNWYQQKPGKAPKLLIYYTSRLQSGVPSRFSGSGSGTDFTLTISSLQPEDFATYYCQQGRRLWSFGGGTKVEIK",–,–,nanomolar level,Not reactive,Not reactive,–
"NEG086: anti-cKIT antibody of Table 3, VH SEQ ID NO 100, VL SEQ ID NO 109 (antibody, listed as Homo sapiens, V domains shown) VH: EVQLVESGGGLVQPGGSLRLSCAASGFTFSDYYMAWVRQAPGKGLEWVANINQIAGSTYYVDSVQGRFTISRDNAKNSLYLQMNSLRAEDTAVYYCARGDYYGTTYWYFDVWGQGTTVTVSS VL: DIQMTQSPSSLSASVGDRVTITCRASQSISSYLNWYQQKPGKAPKLLIYYTSRLQSGVPSRFSGSGSGTDFTLTISSLQPEDFATYYCQQGRRLWSFGGGTKVEIK",–,–,nanomolar level,Not reactive,Not reactive,–
"9P3: hybridoma derived anti-cKIT antibody, VH SEQ ID NO:9, VL SEQ ID NO:18 (antibody, listed as Homo sapiens, V domains shown) VH: EVRLVESEGGLVQPRSSMKLSCTASGFTFSDYYMAWVRQVPEKGLEWVANINYDGSSTYYLDSLKSRFIISRDNAKNILYLQMSSLKSEDTATYYCARGDYYGTTYWYFDVWGTGTTVTVSS VL: DIQMTQTTSSLSASLGDRVTISCRASQDISNYLNWYQQKPDGTVKLLIYYTSRLQSGVPSRFSGSGSGTDYSLTISNLEQEDIATYFCQQGKKLWSFGGGTKLEIKR",–,–,nanomolar level,Not reactive,Not reactive,partial blocking
